Biological target: T1, rhB7-H6 biotinylated Fc fusion protein (human, UniProt Q68D85 25-262, biotin)
T1 construct: B7-H6 (natural cytotoxicity triggering receptor 3 ligand 1), human; supplier named under library sorting; the BLI methods say only 'B7-H6'; source: bought: R&D Systems
T1 sequence (looked up): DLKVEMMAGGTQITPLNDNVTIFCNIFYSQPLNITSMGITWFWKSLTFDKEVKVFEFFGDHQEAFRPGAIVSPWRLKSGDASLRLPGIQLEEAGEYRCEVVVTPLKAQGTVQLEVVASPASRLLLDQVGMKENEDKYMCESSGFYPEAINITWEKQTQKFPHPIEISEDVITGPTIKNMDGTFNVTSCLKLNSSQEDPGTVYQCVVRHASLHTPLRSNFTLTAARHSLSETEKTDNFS
Assay: BLI; competition/epitope binning: antibodies coupled on activated ARG2G biosensors, first association with NKp30 3 min, second association 3 min with B7-H6 or the other NKp30 binders; both orientations, 25 C
Conditions: both partners purified

B1: Recombinant human His-tagged ECD of NKp30 (receptor, UniProt O14931 19-135, looked up)
chain: LWVSQPPEIRTLEGSSAFLPCSFNASQGRLAIGSVTWFRDEVVPGKEVRNGTPEFRGRLAPLASSRFLHDHQAELHIRDVRGHDASIYVCRVEVLGLGVGTGNGTRLVVEKEHPQLG
notes: NKp30 (natural cytotoxicity triggering receptor 3), human, extracellular domain; supplier named under library sorting; also called rhNKp30; NKp30 His-tagged protein; source: bought: ACROBiosystems
Q: Does B1 bind?
A: binds

Source: paper PMC11730255 (Molecular Therapy Oncology, 2024)
